Literature values as cited in paper PMC6396024, “Artemin and an Artemin-Derived Peptide, Artefin, Induce Neuronal Survival, and Differentiation Through Ret and NCAM” (Frontiers in Molecular Neuroscience, 2019).

Tested on: NCAM
Conditions: ref Paratcha et al., 2003; Nielsen et al., 2009; cited from earlier work
Description: We have previously shown that the GDNF-binding site for NCAM is localized to the heel region and that gliafin, a GDNF-derived peptide covering this region, binds to NCAM ([Nielsen et al., 2009]). As the tertiary structure of ARTN is similar to that of GDNF, we speculated that the artefin motif also contains a potential binding site for NCAM. […] Whether NCAM can be an alternative receptor for other GFLs has been establish ...

B1: GDNF: glial cell line-derived neurotrophic factor (protein, UniProt P39905 78-211, looked up)
Glial cell line-derived …: SPDKQMAVLPRRERNRQAAAANPENSRGKGRRGQRGKNRGCVLTAIHLNVTDLGLGYETKEELIFRYCSGSCDAAETTYDKILKNLSRNRRLVSDKVGQACCRPIAFDDDLSFLDDNLVYHILRKHSAKRCGCI
interaction with NCAM: interacts directly with NCAM
